Results reported in patent publication US12428633B2, “Inducible dimerization of recombinases” (TRUSTEES OF BOSTON UNIVERSITY, priority 2016, dated 2025).
“Also recorded” adds a separate entry of the source.

B1: VCre: full-length tyrosine recombinase (SEQ ID NO: 16), recognizes VloxP (protein)
chain: MIENQLSLLGDFSGVRPDDVKTAIQAAQKKGINVAENEQFKAAFEHLLNEFKKREERYSPNTLRRLESAWTCFVDWCLANHRHSLPATPDTVEAFFIERAEELHRNTLSVYRWAISRVHRVAGCPDPCLDIYVEDRLKAIARKKVREGEAVKQASPFNEQHLLKLTSLWYRSDKLLLRRNLALLAVAYESMLRASELANIRVSDMELAGDGTAILTIPITKTNHSGEPDTCILSQDVVSLLMDYTEAGKLDMSSDGFLFVGVSKHNTCIKPKKDKQTGEVLHKPITTKTVEGVFYSAWETLDLGRQGVKPFTAHSARVGAAQDLLKKGYNTLQIQQSGRWSSGAMVARYGRAILARDGAMAHSRVKTRSAPMQWGKDEKD
B2: split Flp system: split Flp recombinase construct fused to ABA-binding domains ABI and PYL (SEQ ID NO: 38 and 39) (protein)
chain 1: MSQFDILCKTPPKVLVRQFVERFERPSGEKIASCAAELTYLCWMITHNGTAIKRATFMSYNTIISNSLSFDIVNKSLQFKYKTQKATILEASLKKLIPAWEFTIIPYNGQKHQSDITDIVSSLQLQFESSEEADKGNSHSKKMLKALLSEGESIWEITEKILNSFEYTSRFTKTKTLYQFLFLATFINCGRFSDIKNVDPKSFKLVQNKYLGVIIQCLVTETKTSVSRHIYFFSARGRIDPLVYLDEFLRNSEPVLKRVNRTGNSSSNKQEYQLLKDNLVRSYNKALKKNAPYPIFAIKNGPKSHIGRHLMTSFLSMKGLTELTNVVGNWSDKRASAVARTTYTHQITAIPDHYFALVSRYYAYDPISKEMIALKDETNPIEEWQHIEQLKGSAEGSGGSGSGSSGGSGTPLYGFTSICGRRPEMEDAVSTIPRFLQSSSGSMLDGRFDPQSAAHFFGVYDGHGGSQVANYCRERMHLALAEEIAKEKPMLCDGDTWLEKWKKALFNSFLRVDSEIGSVAPETVGSTSVVAVVFPSHIFVANCGDSRAVLCRGKTALPLSVDHKPDREDEAARIEAAGGKVIQWNGARVFGVLAMSRSIGDRYLKPSIIPDPEVTAVKRVKEDDCLILASDGVWDVMTDEEACEMARKRILLWHKKNAVAGDASLLADERRKEGKDPAAMSAAEYLSKLAIQRGSKDNISVVVVDLKDYKDDDDKPKKKRKV
chain 2: MAPTQDEFTQLSQSIAEFHTYQLGNGRCSSLLAQRIHAPPETVWSVVRRFDRPQIYKHFIKSCNVSEDFEMRVGCTRDVNVISGLPANTSRERLDLLDDDRRVTGFSITGGEHRLRNYKSVTTVHRFEKEEEEERIWTVVLESYVVDVPEGNSEEDTRLFADTVIRLNLQKLASITEAMNYPYDVPDYASGGSGSGSSGGSGTSIRYPAWNGIISQEVLDYLSSYINRRIPKKKRKV
B3: Cre: full-length tyrosine recombinase, recognizes loxP (protein)
chain: MSNLLTVHQNLPALPVDATSDEVRKNLMDMFRDRQAFSEHTWKMLLSVCRSWAAWCKLNNRKWFPAEPEDVRDYLLYLQARGLAVKTIQQHLGQLNMLHRRSGLPRPSDSNAVSLVMRRIRKENVDAGERAKQALAFERTDFDQVRSLMENSDRCQDIRNLAFLGIAYNTLLRIAEIARIRVKDISRTDGGRMLIHIGRTKTLVSTAGVEKALSLGVTKLVERWISVSGVADDPNNYLFCRVRKNGVAAPSATSQLSTRALEGIFEATHRLIYGAKDDSGQRYLAWSGHSARVGAARDMARAGVSIPEIMQAGGWTNVNIVMNYIRNLDSETGAMVRLLEDGD

Legend:
[1] = test system: BUF logic reporters in HEK293FT; assay: Recombinase activity, orthogonality and cross-reactivity on BUF logic reporters; type: cell-based, human; settings: transient transfection, dose-response (FIG. 8)
Description: FIG. 8A-8C show recombinase cross-reactivity dose-response profile of Cre, Dre, VCre and Vika. FIG. 8A is a summary of intended and unintended recombination of Cre, Dre, VCre and Vika site-specific recombinases.
(§1) DNA was transfected into the human embryonic kidney cell line (HEK293FT) using a polyethylenimine (PEI) protocol. Cells were plated onto 48-(2504) or 96-well (1004) plates the day prior to transfection (200,000 cells/mL), such that the cells were 50-70% confluent the day of transfection. Cells were kept in a humidified incubator at 37° C. and 5% CO2 and maintained in DMEM medium (Corning) with 10% Heat Inactivated Fetal Bovine Serum (Life Technologies), 50 U.I./mL penicillin/50 μg/mL streptomycin (Corning), 2 mM glutamine (Corning) and 1 mM sodium pyruvate (Lonza). […]
(§2) Two days post-transfection and after trypsinization (0.05% Trypsin/0.53 mM EDTA, Corning) and resuspension, all HEK293FT cell populations were analyzed using a Becton Dickinson (BD) LSRFortessa SORP flow cytometer with HTS, except for data in FIG. 5, which were recorded on a BD LSRII. Time-course data was achieved through trypsinization and fixation of cells at particular time points (BD Cytofix) and kept at 4° C. until analyzed through flow cytometry. […]

[2] = test system: 2-input BLADE decoder in HEK293FT cells; assay: 4OHT- and ABA-inducible 2-input BLADE decoder; type: cell-based, human; settings: transient transfection, 4OHT 1 μM, ABA 100 μM
Description: as §1, with “(Lonza). PEI stocks were made from linear polyethylenimine (Polysciences 23966-2) and were dissolved at a concentration of 0.323 g/L in deionized water with the assistance of concentrated hydrochloric acid and sodium hydroxide and then filtered sterilized (0.24 μm). PEI stocks were stored at −80° C. until use and warmed to room temperature prior to usage.” for “(Lonza).”
as §2

Row | Molecule | Cross-reactivity on other recombinases' reporter constructs [1] | Leaky recombinase behavior on 2-input BLADE decoder [2]
1 | B1 | showed cross-reactivity in a dose-dependent manner; also recorded: can recombine Vika's recombination sites | –
2 | B2 | – | minimal leaky recombinase behavior
3 | B3 | showed cross-reactivity in a dose-dependent manner; also recorded: mutually cross-reactive | –
